Tests used:
[1] = target: extracellular domain of rat neurexin-1-β (rat-NX1β-1), residues 48-300 (rat) (UniProt Q63373); experiment: SPR, NX1β immobilised
[2] = target: extracellular domain of rat neurexin-1-β (rat-NX1β-1), residues 48-300 (rat) (UniProt Q63373); experiment: SPR, NX1β immobilised; one value told for the four proteins
[3] = target: extracellular domain of rat neurexin-1-β (rat-NX1β-1), residues 48-300 (rat) (UniProt Q63373); experiment: SPR, β-neurexin immobilised; 3 µM
[4] = target: extracellular domain of rat neurexin-1-β (rat-NX1β-1), residues 48-300 (rat) (UniProt Q63373); experiment: SPR, β-neurexin immobilised; 111 nM
[5] = target: extracellular domain of rat neurexin-1-β (rat-NX1β-1), residues 48-300 (rat) (UniProt Q63373); experiment: SPR (BIAcore), NX1β immobilised
[6] = target: extracellular domain of rat neurexin-1-β (rat-NX1β-1), residues 48-300 (rat) (UniProt Q63373); experiment: SPR (BIAcore), NX1β immobilised; from ka and kd
[7] = target: extracellular domain of rat neurexin-1-β (rat-NX1β-1), residues 48-300 (rat) (UniProt Q63373); experiment: SPR (BIAcore), NX1β immobilised, NL1 62.5-2000 nM
[8] = target: extracellular domain of rat neurexin-1-β (rat-NX1β-1), residues 48-300 (rat) (UniProt Q63373); experiment: SPR, NX1β immobilised; treated against native protein
[9] = target: extracellular domain of rat neurexin-1-β (rat-NX1β-1), residues 48-300 (rat) (UniProt Q63373); experiment: SPR, NX1β immobilised; sialidase II treated against native protein
[10] = target: extracellular domain of rat neurexin-1-β (rat-NX1β-1), residues 48-300 (rat) (UniProt Q63373); experiment: SPR, NX1β immobilised; deglycosylated against native protein
[11] = target: extracellular domain of rat neurexin-1-β (rat-NX1β-1), residues 48-300 (rat) (UniProt Q63373); experiment: SPR, NX1β immobilised; treated against native protein, 500 nM

With “N303A-NL1-638 (from UniProt Q62765 46-638) (receptor)” as the molecule, how does the increase of NX1β binding activity after PNGase F digestion [1] read?
Its increase of NX1β binding activity after PNGase F digestion is 17%.

“N343A-NL1-638 (from UniProt Q62765 46-638) (receptor)” was tested. Which increase of NX1β binding activity after PNGase F digestion [2] did it give?
The increase of NX1β binding activity after PNGase F digestion was 229%.

“R471C-NL3-639 (from UniProt Q62889 35-639) (receptor)” was tested. Which fold less β-neurexin binding than wild type [3] did it give?
Its fold less β-neurexin binding than wild type is 50 fold.

Which fold less total binding than wild type [4] does the source give for “R473T-NL1-691 (from UniProt Q62765 46-691) (receptor)” here?
The fold less total binding than wild type was 3 fold.

For “S549A-NL1-638 (from UniProt Q62765 46-638) (receptor)”, which increase of NX1β binding activity after PNGase F digestion [2] is on record?
The increase of NX1β binding activity after PNGase F digestion was 229%.

Which increase of NX1β binding activity after PNGase F digestion [2] does the source give for “T111A-NL1-638 (from UniProt Q62765 46-638) (receptor)” here?
The increase of NX1β binding activity after PNGase F digestion was 229%.

Which koff [5] does the source give for “soluble truncated NL1 (recombinant, soluble entity; truncation not specified) (from UniProt Q62765 46-691) (receptor)” here?
Its koff is 0.015 s⁻¹.

What about the kon [5] of the same molecule?
The kon was 50000 M⁻¹ s⁻¹.

What about the Kd [6] of the same molecule?
Its Kd is 300 nM.

B1: NL1-651 (soluble rat neuroligin-1 truncated by a stop codon at Thr-652, N-terminal FLAG) (receptor)
chain: DYKDDDDKLAAANSSIDLQKLDDVDPLVTTNFGKIRGIKKELNNEILGPVIQFLGVPYAAPPTGEHRFQPPEPPSPWSDIRNATQFAPVCPQNIIDGRLPEVMLPVWFTNNLDVVSSYVQDQSEDCLYLNIYVPTEDVKRISKECARKPGKKICRKGDIRDSGGPKPVMVYIHGGSYMEGTGNLYDGSVLASYGNVIVITVNYRLGVLGFLSTGDQAAKGNYGLLDLIQALRWTSENIGFFGGDPLRITVFGSGAGGSCVNLLTLSHYSEGNRWSNSTKGLFQRAIAQSGTALSSWAVSFQPAKYARILATKVGCNVSDTVELVECLQKKPYKELVDQDVQPARYHIAFGPVIDGDVIPDDPQILMEQGEFLNYDIMLGVNQGEGLKFVENIVDSDDGVSASDFDFAVSNFVDNLYGYPEGKDVLRETIKFMYTDWADRHNPETRRKTLLALFTDHQWVAPAVATADLHSNFGSPTYFYAFYHHCQTDQVPAWADAAHGDEVPYVLGIPMIGPTELFPCNFSKNDVMLSAVVMTYWTNFAKTGDPNQPVPQDTKFIHTKPNRFEEVAWTRYSQKDQLYLHIGLKPRVKEHYRANKVNLWLELVPHLHNLNDISQYTSTTTKVPS
With B1 as the molecule, how does the fold binding over NL1-691 [7] read?
The fold binding over NL1-691 was 2.5 fold.

B2: NL1-691 (soluble rat neuroligin-1 truncated by a stop codon at Tyr-692, N-terminal FLAG) (receptor)
chain: DYKDDDDKLAAANSSIDLQKLDDVDPLVTTNFGKIRGIKKELNNEILGPVIQFLGVPYAAPPTGEHRFQPPEPPSPWSDIRNATQFAPVCPQNIIDGRLPEVMLPVWFTNNLDVVSSYVQDQSEDCLYLNIYVPTEDVKRISKECARKPGKKICRKGDIRDSGGPKPVMVYIHGGSYMEGTGNLYDGSVLASYGNVIVITVNYRLGVLGFLSTGDQAAKGNYGLLDLIQALRWTSENIGFFGGDPLRITVFGSGAGGSCVNLLTLSHYSEGNRWSNSTKGLFQRAIAQSGTALSSWAVSFQPAKYARILATKVGCNVSDTVELVECLQKKPYKELVDQDVQPARYHIAFGPVIDGDVIPDDPQILMEQGEFLNYDIMLGVNQGEGLKFVENIVDSDDGVSASDFDFAVSNFVDNLYGYPEGKDVLRETIKFMYTDWADRHNPETRRKTLLALFTDHQWVAPAVATADLHSNFGSPTYFYAFYHHCQTDQVPAWADAAHGDEVPYVLGIPMIGPTELFPCNFSKNDVMLSAVVMTYWTNFAKTGDPNQPVPQDTKFIHTKPNRFEEVAWTRYSQKDQLYLHIGLKPRVKEHYRANKVNLWLELVPHLHNLNDISQYTSTTTKVPSTDITLRPTRKNSTPVTSAFPTAKQDDPKQQPSPFSVDQRD
B2 was tested. Which fold increase in binding after combined sialidase II and PNGase F treatment [8] did it give?
The fold increase in binding after combined sialidase II and PNGase F treatment was 5 fold.

What about the fold increase in binding after sialidase-II treatment [9] of the same molecule?
The fold increase in binding after sialidase-II treatment was 2 to 2.5 fold.

What about the fold increase in binding after PNGase F treatment [10] of the same molecule?
The fold increase in binding after PNGase F treatment was 3 fold.

B3: NL1-638 (soluble rat neuroligin-1 truncated by a stop codon at Ile-639, N-terminal FLAG) (receptor)
chain: DYKDDDDKLAAANSSIDLQKLDDVDPLVTTNFGKIRGIKKELNNEILGPVIQFLGVPYAAPPTGEHRFQPPEPPSPWSDIRNATQFAPVCPQNIIDGRLPEVMLPVWFTNNLDVVSSYVQDQSEDCLYLNIYVPTEDVKRISKECARKPGKKICRKGDIRDSGGPKPVMVYIHGGSYMEGTGNLYDGSVLASYGNVIVITVNYRLGVLGFLSTGDQAAKGNYGLLDLIQALRWTSENIGFFGGDPLRITVFGSGAGGSCVNLLTLSHYSEGNRWSNSTKGLFQRAIAQSGTALSSWAVSFQPAKYARILATKVGCNVSDTVELVECLQKKPYKELVDQDVQPARYHIAFGPVIDGDVIPDDPQILMEQGEFLNYDIMLGVNQGEGLKFVENIVDSDDGVSASDFDFAVSNFVDNLYGYPEGKDVLRETIKFMYTDWADRHNPETRRKTLLALFTDHQWVAPAVATADLHSNFGSPTYFYAFYHHCQTDQVPAWADAAHGDEVPYVLGIPMIGPTELFPCNFSKNDVMLSAVVMTYWTNFAKTGDPNQPVPQDTKFIHTKPNRFEEVAWTRYSQKDQLYLHIGLKPRVKEHYRANKVNLWLELVPHLHNLND
How did the fold binding over NL1-691 [7] turn out when B3 was run?
The fold binding over NL1-691 was 2.5 fold.

What about the fold increase in binding after combined sialidase II and PNGase F treatment [11] of the same molecule?
Its fold increase in binding after combined sialidase II and PNGase F treatment is 5 fold.

And the fold increase in binding after sialidase-II treatment [9]?
Its fold increase in binding after sialidase-II treatment is 2 to 2.5 fold.

What about the fold increase in binding after PNGase F treatment [10] of the same molecule?
The fold increase in binding after PNGase F treatment was 3 fold.

What about the increase of NX1β binding activity after PNGase F digestion [2] of the same molecule?
The increase of NX1β binding activity after PNGase F digestion was 229%.

Reference: US20070180544A1
